Target: T1, purified human α5β1-integrin (Homo sapiens, UniProt P05556+P08648)
T1 construct: purchased Chemicon International (Temecula, Calif.)
Test: Solid phase dot-ELISA: α5β1-integrin binding to immobilized uPAR peptides and suPAR
Conditions: for α5β1-integrin binding to immobilized peptide: peptide immobilized on nitrocellulose, α5β1-integrin 750 ng/ml; for reduction of integrin binding to immobilized uPAR: α5β1-integrin pre-incubated 15 min with 100 fold molar excess of peptide, suPAR 1.5 μg
Description: FIGS. 1A-H show the interaction between α5β1-integrin and immobilized uPAR and uPAR-derived synthetic peptides through solid-phase dot-ELISA. […] Bound integrin was detected with anti-α5 integrin antibody followed by goat anti-rabbit IgG (H+L) HRP conjugated secondary antibody and developed with enhanced chemiluminescence (“ECL”). FIG. 1B is a graph showing that binding of integrin to suPAR is saturable. SuPAR (1.5 μg) was immobilized on nitrocellulose membrane in triplicates, incubated with 0, 0.1, 0.5, 1, 2, and 4 μg/ml of α5β1-integrin and tested for integrin binding as in FIG. 1A. The dots were scanned with NIH Image. Mean and SE are shown. […] Peptides representing regions located in each of the three uPAR-domains were immobilized, incubated with α5β1-integrin, and analyzed as in FIG. 1A. Only peptide 240-248 binds α5β1-integrin. FIG. 1D is a graph showing that peptide 240-248 inhibits integrin binding to suPAR. The α5β1-integrin (750 ng/ml) was pre-incubated for 15 min at room temperature with 100 fold molar excess of 240-248 or 17-24 peptides, or with no peptide (Control) and the mixtures were applied to immobilized suPAR (1.5 μg), 2 dots per mixture, and developed as in FIG. 1A. The dots were scanned with NIH Image. The results (bars) show % of control, the lines show range. FIG. 1E is a graph showing binding of α5β1- and α3β1-integrin to suPAR and peptide 240-248. Dot-ELISA was performed in duplicate as in FIG. 1A, except that purified α5β1-integrin and α3β1-integrin (750 ng/ml) were used. Bound integrins were detected with the appropriate previously titrated antibodies followed by goat anti-rabbit IgG (H+L) HRP conjugated secondary antibody and detection with ECL. The graph represents the mean and range of two values: α5β1-integrin binding to peptide 240-248 (▪) or SuPAR (▴); α3β1-integrin binding to peptide 240-248 ([…]) and SuPAR (x). […] Peptide 240-248 (domain III), 17-24 (domain I), and the S245A mutant of peptide 240-248 were immobilized and tested for integrin binding as in FIG. 1A. FIGS. 1G-H show the crystal structure of human uPAR shown as a surface representation. The three individual domains of uPAR in FIG. 1G are indicated as follows: D1 is on the right side, DII is on the top of the model, and Diii is on the left of the model. In FIG. 1H, the order of the domains is inversed. […] The location of the COOH-terminal in uPAR domain III harboring the GPI-anchor is indicated by the arrow (FIG. 1H). FIGS. 1G-H were created by the program PyMol (DeLano Scientific) using the coordinates 1YWH.
FIGS. 2A-B show solid phase dot-ELISA of suPAR. […] Binding was detected as in FIG. 1A and the dots were scanned with NIH Image. Mean of the two-scanned value for each suPAR concentration are shown in the bottom panel. Mutation of residues in the 239-249 sequence reduced the integrin binding by ˜50 to 94%. suPAR^E33A (▪), suPAR^wt (▴), suPAR^R239A (♦), suPAR^H249A (x), suPAR^Q248A (∘), suPAR^M246A ([…]), suPAR^S245A (□).
Synthetic uPAR-derived peptides and mutant proteins were diluted to 0.5, 1, and 2 μg/100 μl of PBS. […] The strips, pinned to the bottom of a plastic box, were washed with TBS with 0.1% Tween 20, overlaid with 500 μl of rabbit anti-integrin α5 polyclonal antibody (1:650) for 1 hr at RT, washed with TBST twice, incubated with goat anti-rabbit IgG (H+L) HRP conjugated secondary antibody (1:2000) for 1 hr, washed 3 times with TBST, and developed with ECL. The dots were scanned with NIH image.

T1 sequence (P08648 42-894 limits assumed): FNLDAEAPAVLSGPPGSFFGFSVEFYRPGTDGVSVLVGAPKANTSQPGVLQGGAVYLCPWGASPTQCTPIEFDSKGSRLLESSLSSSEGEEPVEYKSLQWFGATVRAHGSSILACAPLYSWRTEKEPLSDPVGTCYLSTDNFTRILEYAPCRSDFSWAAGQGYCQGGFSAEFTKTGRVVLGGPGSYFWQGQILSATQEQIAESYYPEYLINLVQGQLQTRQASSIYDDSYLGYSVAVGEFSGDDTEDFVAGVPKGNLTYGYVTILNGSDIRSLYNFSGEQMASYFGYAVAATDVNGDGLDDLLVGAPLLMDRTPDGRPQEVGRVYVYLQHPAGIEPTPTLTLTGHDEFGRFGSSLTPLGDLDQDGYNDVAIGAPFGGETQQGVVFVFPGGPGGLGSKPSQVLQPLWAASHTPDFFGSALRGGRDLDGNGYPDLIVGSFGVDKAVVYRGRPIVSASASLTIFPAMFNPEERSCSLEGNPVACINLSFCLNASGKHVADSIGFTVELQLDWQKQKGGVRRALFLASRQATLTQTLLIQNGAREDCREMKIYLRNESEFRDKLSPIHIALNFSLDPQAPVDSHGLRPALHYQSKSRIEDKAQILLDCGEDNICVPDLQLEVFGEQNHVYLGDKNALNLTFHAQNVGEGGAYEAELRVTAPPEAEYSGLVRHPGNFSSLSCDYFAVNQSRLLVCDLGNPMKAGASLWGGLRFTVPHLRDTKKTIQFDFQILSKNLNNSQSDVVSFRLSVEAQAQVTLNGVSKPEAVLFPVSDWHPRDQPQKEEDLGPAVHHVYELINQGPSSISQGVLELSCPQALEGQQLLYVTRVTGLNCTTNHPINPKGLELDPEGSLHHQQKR
T1 sequence (P08648 895-1049 limits assumed): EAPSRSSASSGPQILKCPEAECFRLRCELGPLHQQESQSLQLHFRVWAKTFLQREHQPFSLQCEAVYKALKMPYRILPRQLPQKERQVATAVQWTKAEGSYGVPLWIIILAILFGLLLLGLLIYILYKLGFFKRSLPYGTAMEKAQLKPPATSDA
T1 sequence (P05556 21-798): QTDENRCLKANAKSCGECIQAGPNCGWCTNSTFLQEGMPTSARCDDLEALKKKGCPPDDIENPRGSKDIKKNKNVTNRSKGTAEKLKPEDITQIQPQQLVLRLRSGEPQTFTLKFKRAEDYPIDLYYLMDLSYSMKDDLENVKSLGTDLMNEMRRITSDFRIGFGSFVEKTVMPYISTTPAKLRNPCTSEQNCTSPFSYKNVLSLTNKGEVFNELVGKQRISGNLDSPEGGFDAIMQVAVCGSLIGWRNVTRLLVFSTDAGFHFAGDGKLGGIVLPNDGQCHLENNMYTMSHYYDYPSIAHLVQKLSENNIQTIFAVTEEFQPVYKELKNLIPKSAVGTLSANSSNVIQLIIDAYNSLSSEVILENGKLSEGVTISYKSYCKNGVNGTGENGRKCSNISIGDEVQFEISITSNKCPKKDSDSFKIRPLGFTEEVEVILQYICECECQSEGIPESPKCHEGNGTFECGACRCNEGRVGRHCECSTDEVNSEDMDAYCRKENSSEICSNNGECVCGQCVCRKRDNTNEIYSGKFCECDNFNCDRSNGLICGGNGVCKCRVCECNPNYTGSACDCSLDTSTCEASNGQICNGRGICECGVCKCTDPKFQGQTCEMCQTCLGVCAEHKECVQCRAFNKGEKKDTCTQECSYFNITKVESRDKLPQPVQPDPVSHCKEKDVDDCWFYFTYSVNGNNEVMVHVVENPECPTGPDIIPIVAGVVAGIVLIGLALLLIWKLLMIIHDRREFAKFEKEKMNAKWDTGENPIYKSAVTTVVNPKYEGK

| Substance | α5β1-integrin binding to immobilized peptide | reduction of integrin binding to immobilized uPAR |
| --- | --- | --- |
| peptide 17-24: synthetic uPAR-derived peptide, domain I amino acid 17-24: CALGQDLC (SEQ ID NO:5); negative control [reference compound] | no binding | negligible effect |
| peptide 240-248: synthetic uPAR-derived peptide, domain III residues 240-248: GCATASMCQ (SEQ ID NO:9) | bound α5β1-integrin in a dose-dependent fashion | more than 70% |

Reference: US20100249184A1, “INDUCTION AND/OR MAINTENANCE OF TUMOR DORMANCY BY DISRUPTION OF UROKINASE PLASMINOGEN ACTIVATOR RECEPTOR-INTEGRIN INTERACTION” (MOUNT SINAI SCHOOL OF MEDICINE, priority 2007, published 2010)
